How the values were obtained:
[1] = substrate: Nc1ncnc2c1ncn2[C@H]1C[C@H](O)[C@@H](COP(=O)(O)OP(=O)(O)OP(=O)(O)O)O1; test: purified protein; assay type: biochemical, Deinococcus murrayi; conditions: ssDNA-dependent (80-nt oligonucleotide, 12.16 μM nucleotides), 11.56 mM MgCl2, 20 mM Tris-HCl pH 7.5, 37 °C, Hill fit, n 1.0
[2] = substrate: Nc1ncnc2c1ncn2[C@@H]1O[C@H](COP(=O)(O)OP(=O)(O)OP(=O)(O)O)[C@@H](O)[C@H]1O; test: purified protein; assay type: biochemical, Deinococcus murrayi; conditions: ssDNA-dependent (80-nt oligonucleotide, 12.16 μM nucleotides), 11.56 mM MgCl2, 20 mM Tris-HCl pH 7.5, 37 °C, Hill fit, n 1.1

B1: DmuRecA (Deinococcus murrayi) (protein)
chain: MSKDNPKDFGTPSDSKERLKAIETAMTQIEKAFGKGSIMRLGAESKLDVQAVSTGSLSLDLALGVGGIPRGRITEIYGPESGGKTTLALSVIAQAQKAGGTCAFIDAEHALDPVYARSLGVNTDELLVSQPDNGEQRLEIMELLVRSGAIDVVVVDSVAALTPRAEIEGEMGDSLPGLQARLMSQALRKLTAILSKTGTAAIFINQVREKIGVMYGNPETTTGGRALKFYASVRLDVRKIGQPVKMGNDAVGNTVKVKTVKNKVAPPFKEVELTLMYGKGFDQLSDLVTLASDMDIIKKAGSFYSYGEDRLGQGKEKAIAYIAERPELEAEIRERVLSAIKEGRAGDVPGVASVPAVAE
notes: heterogeneous oligomers
- Km [1]: 280 ± 7 µM
- kcat [1]: 0.14 ± 0.004 s⁻¹
- kcat/Km [1]: 500 ± 25 M⁻¹ s⁻¹
- Km [2]: 310 ± 9 µM
- kcat [2]: 0.13 ± 0.004 s⁻¹
- kcat/Km [2]: 430 ± 18 M⁻¹ s⁻¹

Reference: publication PMC3103430, “RecA Proteins from Deinococcus geothermalis and Deinococcus murrayi - Cloning, Purification and Biochemical Characterisation” (BMC Molecular Biology, 2011)
